Experimental findings from patent US20230220053A1 (published 2023) are described below.

Substitutions are numbered along the chain they refer to.

B1: 2020EP61-A08 scFv (scFv)
scFv: QVQLVQSGAEVKKPGASVKVSCKASGYTFTSYYMHWVRQAPGQGLEWMGIINPSGGSTSYAQKFQGRVTMTRDTSTSTVYMELSSLRSEDTAVYYCARESGNYYYDSSGYTFDYWGQGTLVTVSSGGGGSGGGGSGGGGSSYVLTQPLSVSVALGQTARITCGGNNIGSKNVHWYQQKPGQAPVLVIYYDSDRPSGIPERFSGSNSGNTATLTISGTQAMDEADYYCQAWDSSTVVFGGGTKLTVL
B2: 2020EP54-H01 scFv (scFv)
scFv: QVQLVESGGGVVQPGRSLRLSCAASGFTFSSYGMHWVRQAPGKGLEWVAVISYDGSNKYYADSVKGRFTISRDNSKNTLYLQMNSLRAEDTAVYYCAKGRGWYLDYWGQGTLVTVSSGGGGSGGGGSGGGGSNFMLTQPPSVSVSPGQTASITCSGDKLGDKYACWYQQKPGQSPVLVMYEDYKRPSGIPARFSGSNSGNTATLTISRVEGGDEGDYYCQVWDSRGPEVIFGGGTKLTVL
notes: also called 2020EP054-H01
B3: 2020EP66-D03 scFv (scFv)
scFv: QVQLQQWGAGLLKPSETLSLTCAVYGGSFSGYYWSWIRQPPGKGLEWIGEINHSGSTNYNPSLKSRVTISVDTSKNQFSLKLSSVTAADTAVYYCARGPPLWNYGKGFDYWGQGTLVTVSSGGGGSGKGGSGGGGSQPVLTQPPSASGTPGQRVTISCSGSSSNIGSNYVYWYQQLPRTAPKLLIYRNNQRPSGVPDRFSGSKSGTSASLAISGLRSEDEADYYCAAWDDSLSAWVFGGGTKLTVL
B4: 2020EP60-A12 scFv (scFv)
scFv: EVQLVESGGGVVQPGRSLRLSCAASGFTFSSYGMHWVRQAPGKGLEWVAVISYDGSNKYYADSVKGRFTISRDNSKNTLYLQMNSLRAEDTAVYYCAKGLEYYFDYWGQGTLVTVSSGGGGSGGGGSGGGGSSYELTQPPSLSVSPGQTARITCSGDALPEQYAYWYQQKPGQAPVLVIYKDSERPSGIPERFSGSSSGTTVTLTISGVQAEDEADYYCQAWDSSTVVFGGGTKLTVL
B5: 2020EP54-B02 scFv (scFv)
scFv: QVQLVQSGAEVKKPGASVKVSCKASGYTFIGYYMHWMRQAPGQGLEWMGRINPNSGGTNYAEKFQGRVTMTRDTSISTAYMELSRLTFNDTAVYYCARWDSSSWKFDSWGQGTLVTVSSGGGGSGGGGSGGGGSEIVLTQSPSSLSASVGDRVTITCQASQDISNYLNWYQQKPGKAPKLLIYDASNLETGVPSRFSGSGSGTDFTFTISSLQPEDIATYYCQQYDNLPITFGQGTRLEIK
B6: 2020EP66-A07 scFv (scFv)
scFv: EVQLVQSGAEVKKPGSSVKVSCKASGGTFSSYAISWVRQAPGQGLEWMGGIIPIFGTANYAQKFQGRVTITADESTSTAYMELSSLRSEDTAVYYCASGGDGYNYDYYYYGMDVWGQGTTVTVSSGGGGSGGGGSGGGGSSYELTQPPSVSVSPGQTATITCSGEKLGDKYSFWYQQKPGQSPVMVMYQDDQRPSGTPERFSGSNSGNTATLTISGTRATDEADYYCQAWDNSASVFGSGTKLTVL
B7: 2020EP75-E02 scFv (scFv)
scFv: QMQLVQSGAEVKKPGSSVKVSCKASGGTFSSYAISWVRQAPGQGLEWMGGIIPIFGTANYAQKFQGRVTITADKSTSTAYMELSSLRSEDTAVYYCARPRDYRAQYYFDYWGQGTLVTVSSGGGGSGGGGSGGGGSDIVMTQSPSSLSASVGDRVTITCRAGQDIDTSVNWYQLKPGKAPRLLIYASSSLQTGVPSRFSGGGSGAEFTLTISSLQPEDFATYFCQQTFSTSVTFGGGTKVEIK
B8: 2020EP53-D06 scFv (scFv)
scFv: QVQLVQSGGGVVQPGRSLRLSCAASGFTFSSYAMHWVRQAPGKGLEWVAVISYDGSNKYYADSVKGRFTISRDNSKNTLYLQMNSLRAEDTAVYYCARDGEDGYNYISPFDYWGQGTLVTVSSGGGGSGGGGSGGGGSSYELTQPPSVSVAPGETARITCRGNDIGSKSVHWYQQKPGQAPVLVLYYDSDRPSGIPERFSGSNSGNTATLTISSVEAGDEADYYCQVWDIDVVFGGGTKLTVL
B9: 2020EP64-G10 scFv (scFv)
scFv: B8 scFv with G137R, Q226H
B10: 2020EP64-C08 scFv (scFv)
scFv: QMQLVQSGAEVKKPGSSVKVSCKASGGTFSSYAISWVRQAPRQGLEWMGRIIPILGIANYAQKFQGRVTITADKSTSTAYMELSSLRSEDTAVYYCASSYGGNQLWGQGTLVTVSSGGGGSGGGGSGGGGSQSVLTQPPSASGTPGQRVTISCSGSDSNIGTNTVNWYQQVPGTAPKVLIYSTHQRPSGVPDRFSASKSGTSASLAISGLQSEDEADYYCSSWDVSLNAWVFGGGTKVTVL
B11: 2020EP60-F05 scFv (scFv)
scFv: QVQLVESGGGVVQPGGSLRLSCAASGFTFSSYGMHWVRQAPGKGLEWVAVISYDGSNKYYADSVKGRFTISRDNSKNTLYLQMNSLRAEDTAVYYCAKARVALGYFDWLLYDGMDVWGQGTTVTVSSGGGGSGGGGSGGGGSSSELTQPPSVSVSPGQTASITCSGDKLGNKYVFWYQQKPGQSPILVIYQDNRRPSGIPERFSGSNSGNTATLTISGDPAMDEADYYCQAWDSSTVVFGGGTKLTVL
B12: 2020EP71-E04 scFv (scFv)
scFv: QVQLVQSGGGVVQPGRSLRLSCAASGFTFSSYGMHWVRQAPGKGLEWVAVISYDGSNKYYADSVKGRFTISRDNSKNTLYLQMNSLRAEDTAVYYCAKDRAYYYGYYYYYYGMDVWGQGTTVTVSSGGGGSGGGGSGGGGSQSVLTQPPSVSGAPGQRVTISCTGSSSNIGAGYDVHWYQQLPGTAPKLLIYGNSNRPSGVPDRFSGSKSGTSASLAITGLQAEDEADYYCATWDDSLSGPVFGGGTKVTVL

The first test concerns the target T1, RBD of SARS-CoV-2 spike protein S1 (recombinant, construct not stated) (SARS-CoV-2, UniProt P0DTC2 328-533).
T1 construct: also called SARS-COV-2, RBD; RBD-AF647
Put plainly: ELISA, RBD coated, scFv titrated, anti-Flag HRP. (An ELISA detects its analyte on a solid surface through an enzyme-linked reagent.)
For the molecule B1, the EC50 (as a rule, the concentration needed to bring the measured effect to its halfway point) is 2.52 nM.

B2: the EC50 was 5.77 nM.

For the molecule B3, the binding result is “no binding (tested: 200 nM (highest concentration tested))”.

B4: the EC50 came out at 4.99 nM.

As for B5, the EC50 came out at 75.9 nM.

Turning to B6, the binding result was “no binding (tested: 200 nM (highest concentration tested))”.

With B7, the binding result was “no binding (tested: 200 nM (highest concentration tested))”.

As to B8, the EC50 was 0.818 nM.

For B9, the EC50 came to 0.663 nM.

Take B10: the EC50 is 8.73 nM.

As for B11, the EC50 came out at 0.649 nM.

As for B12, the binding result is listed as “no binding (tested: 200 nM (highest concentration tested))”.

A further test has as its target S1-Fc (SARS-CoV-2 S1 protein, Fc fusion) (SARS-CoV-2, UniProt P0DTC2 16-685). Briefly: SPR (Biacore T200), S1 captured on anti-human Fc chip, scFv injected.
As to B2, the Kd – broadly, the equilibrium constant for the complex coming apart – is 52.5 nM; the dissociation rate constant (koff) (commonly the rate constant with which the complex falls apart) is 0.0052 s⁻¹; the kon (in general, the second-order rate constant of association) is 99000 M⁻¹ s⁻¹.

For B3, binding was put at a Kd of 19.5 nM, the koff is 0.00256 s⁻¹ and the association rate constant (kon) worked out at 131000 M⁻¹ s⁻¹.

Regarding B5, the Kd worked out at 91.8 nM, the koff was 0.00366 s⁻¹ and the kon was determined as 39900 M⁻¹ s⁻¹.

With B6, the dissociation constant (Kd) was determined as 2.3 nM, the koff amounted to 0.00142 s⁻¹ and the kon stood at 614000 M⁻¹ s⁻¹.

B7: the affinity, expressed as Kd, was 4.46 nM; the koff came out at 0.00174 s⁻¹; the kon was determined as 390000 M⁻¹ s⁻¹.

B8: the Kd is 7.84 nM, the koff is 0.00204 s⁻¹ and the kon was found to be 260000 M⁻¹ s⁻¹.

Take B9: binding was put at a Kd of 11.2 nM, the koff is 0.00242 s⁻¹ and the kon amounted to 215000 M⁻¹ s⁻¹.

The molecule B10 gave a Kd of 73.6 nM, a koff of 0.00693 s⁻¹ and an on-rate constant (kon) of 94100 M⁻¹ s⁻¹.

In turn, B12 gave a Kd of 37.6 nM, a koff of 0.0019 s⁻¹ and a kon of 50600 M⁻¹ s⁻¹.

For another test, the target named is T2, SARS-CoV-2-RBD (328-533)-Fc (SARS-CoV-2).
T2 construct: also called RBD-Fc
Briefly: SPR (Biacore T200), RBD captured on anti-human Fc chip, scFv injected.
Molecule B1 returned a Kd of 69.4 nM, a koff of 0.00191 s⁻¹ and a kon of 27500 M⁻¹ s⁻¹.

B2 showed a Kd of 31.4 nM, a koff of 0.00265 s⁻¹ and a kon of 84300 M⁻¹ s⁻¹.

The molecule B5 yielded a Kd of 69.5 nM, a koff of 0.00242 s⁻¹ and a kon of 34900 M⁻¹ s⁻¹.

B8 showed a Kd of 4.4 nM, an off-rate (koff) of 0.0011 s⁻¹ and a kon of 251000 M⁻¹ s⁻¹.

In turn, B11 returned a Kd of 6.14 nM, a koff of 0.00302 s⁻¹ and a kon of 491000 M⁻¹ s⁻¹.

Another test deals with T3, S1 protein of SARS-CoV-2 (recombinant, construct not stated) (SARS-CoV-2, UniProt P0DTC2 16-685). Put plainly: ELISA, S1 coated, scFv titrated, anti-Flag HRP.
B1: the EC50 amounted to 5.74 nM.

On to B2, for which the EC50 was 20.4 nM.

For the molecule B3, the EC50 was 0.514 nM.

B4: the concentration giving a half-maximal response (EC50) amounted to 27.3 nM.

For B6, the EC50 amounted to 0.525 nM.

Regarding B7, the EC50 is 0.225 nM.

As to B8, the EC50 is 0.511 nM.

With B9, the EC50 is 0.936 nM.

Turning to B10, the EC50 came to 40.2 nM.

Regarding B11, the EC50 came out at 1.38 nM.

On to B12, for which the EC50 is 5.03 nM.

In a further test the target is T3, S1 protein of SARS-CoV-2 (recombinant, …).
Assay: not given
On to B2, for which the IC50 (commonly the concentration at which inhibition is half-maximal) turned out to be 38.4 nM.
